Test [1] addresses T1, recombinant human GPC-3 protein (human, UniProt P51654 25-559, limits assumed).
T1 construct: also called glypican-3; recombinant GPC-3 protein
The experiment in a line: binding ELISA with biotin-hGPC-3, EC50 calculated from the curves of FIG. 1A to 1C.

Test [2] deals with T1, recombinant human GPC-3 protein. The experiment in a line: SPR, Biacore T200. As to the method: Affinity of 24 anti-GPC-3 IgG₁ antibodies was measured via Surface Plasmon Resonance (SPR) analysis using Biacore™ T200 system and shown in Table E3 (below).
For orientation: SPR reads the build-up and loss of mass on a sensor chip optically.

These results are taken from patent publication US20260042862A1 (AGENCY FOR SCIENCE TECHNOLOGY AND RESEARCH, published 2026).

B1: anti-GPC-3 IgG1 clone 4A12 (antibody, V domains shown)
VH: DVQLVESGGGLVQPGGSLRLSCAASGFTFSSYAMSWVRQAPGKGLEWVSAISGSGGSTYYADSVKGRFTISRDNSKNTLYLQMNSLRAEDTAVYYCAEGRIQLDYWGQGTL
VL: LPVLTQPPSVSVSPGQTARITCSGYELGDKYAFWYQQKPGQSPVLVIYQDTKRPSGIPERFSGSSSGDTATLIISGTQILDEADYYCQAWDSSTHVVFGGGTK
notes: Tested as IgG1; also called monoclonal antibody 4A12
In the case of B1, the EC50 in test [1] is 6.61 nM. Also, in test [2], the dissociation constant (Kd) is 22.9 nM, the koff was 0.00609 s⁻¹ and the on-rate (kon) is 266000 M⁻¹ s⁻¹.

B2: anti-GPC-3 IgG1 clone 2F1 (antibody, V domains shown)
VH: EVQLVQSGAEVKKPGSSVKVSCKASGGTFSSYAISWVRQAPGQGLEWMGGIIPIFGTANYAQKFQGRVTITADESTSTAYMELSSLRSEDTAVYYCARDSPYYYYMDVWGKGTT
VL: DVVMTQSPLFLPVTLGQPASISCRSSQSLVYSDGNTYLSWFQQRPGQSPRRLVYKVSSRDSGVPDRFSGSGSGTDFTLKISRVEAEDVGVYYCMQGTHWPRTFGQGTK
notes: Tested as IgG1; also called monoclonal antibody 2F1
Consider B2, for which, in test [1], the EC50 is 2.61 nM. In test [2], the equilibrium dissociation constant (Kd) came to 14.7 nM, the koff was 0.00181 s⁻¹ and the kon amounted to 124000 M⁻¹ s⁻¹.

B3: anti-GPC-3 IgG1 clone 4A5 (antibody, V domains shown)
VH: EVQLVQSGAEVKKPGASVKVSCKASGYTFTSYGISWVRQAPGQGLEWMGWISAYNGNTNYAQKLQGRVTMTTDTSTSTAYMELRSLRSDDTAVYYCARDGLSSSWFYYYYGMDVWGQGTT
VL: not shown
notes: Tested as IgG1; also called monoclonal antibody 4A5
In the case of B3, the concentration for a half-maximal effect (EC50) in test [1] is 15.6 nM. Moreover, in test [2], the dissociation constant Kd is 12.5 nM, the koff is 0.000946 s⁻¹ and the association rate constant (kon) was determined as 75700 M⁻¹ s⁻¹.

B4: anti-GPC-3 IgG1 clone 3A9 (antibody, V domains shown)
VH: QVQLQQWGAGLLKPSETLSLTCAVYGGSFSGYYWSWIRQPPGKGLEWIGEINHSGSTNYNPSLKSRVTISVDTSKNQFSLKLSSVTAADTAVYYCARLYKRRPFDYWGQGTL
VL: not shown
notes: Tested as IgG1; also called monoclonal antibody 3A9
Turning to B4, the EC50 in test [1] is 10.8 nM. Also, in test [2], the equilibrium dissociation constant (Kd) came out at 12.4 nM, the dissociation rate constant (koff) amounted to 0.00188 s⁻¹ and the kon stood at 151000 M⁻¹ s⁻¹.

B5: anti-GPC-3 IgG1 clone 1A12 (antibody, V domains shown)
VH: QVQLQQWGAGLLKPSETLSLTCAAYGGSFSGYYWSWIRQPPGKGLEWIGEINHSGSTNYNPSLKSRVTISVDTSKNQFSLKLSSVTAADTAVYYCARLYKRRPFDYWGQGTL
VL: ETTLTQSPGTLSLSPGERATLSCRASQSISSIYLAWYQQKPGQAPRLLIYGASRRATGIPDRFSGSGSGTDFTLTISRLEPEDFAVYYCQQYGSSLRTFGQGTK
notes: Tested as IgG1; also called monoclonal antibody 1A12
Turning to B5, the concentration giving a half-maximal response (EC50) in test [1] was 10.2 nM. In addition, in test [2], the dissociation constant Kd was 27.6 nM, the off-rate (koff) stood at 0.00315 s⁻¹ and the kon is 114000 M⁻¹ s⁻¹.

B6: anti-GPC-3 IgG1 clone 1E1 (antibody, V domains shown)
VH: QVQLQQWGAGLLKPSETLSLTCAVYGGSFSGYYWSWIRQPPGKGLEWIGEINHSGSTNYNPSLKSRVTISVDTSKNQFSLKLSSVTAADTAVYYCARLYKRRPFDYWGQGTL
VL: VTTLTQSPGTLSLSPGERATLSCRASESVSSRYLAWYQQRPGQAPRLLIYGASRRATGSPERFSGGGSGTDFTLTISRLEPEDFAVYYCQHYGNSPGTFGQGTK
notes: Tested as IgG1; also called monoclonal antibody 1E1
As to B6, the EC50 in test [1] is 50.1 nM. Also, in test [2], the dissociation constant Kd was 16.2 nM, the koff worked out at 0.00233 s⁻¹ and the kon was found to be 144000 M⁻¹ s⁻¹.

B7: anti-GPC-3 IgG1 clone 4G4 (antibody, V domains shown)
VH: QVQLQQWGAGLLKPSETLSLTCAVYGGSFSGYYWSWIRQPPGKGLEWIGEINHSGSTNYNPSLKSRVTISVDTSKNQFSLKLSSVTAADTAVYYCARLYKRRPFDYWGQGTL
VL: ETTLTQSPGTLSLSPGERATLSCRASQSVSSSYLAWYQQKPGQAPRLLIYNASRRATGIPDRFSGSGSGADFTLTISRLDPEDFAVYFCQQYGSSPQTFGQGTK
notes: Tested as IgG1; also called monoclonal antibody 4G4
As for B7, in test [1], the EC50 is 12.3 nM. Also, in test [2], the Kd amounted to 12.9 nM, the koff was found to be 0.00195 s⁻¹ and the kon is 151000 M⁻¹ s⁻¹.

B8: anti-GPC-3 IgG1 clone 3G12 (antibody, V domains shown)
VH: QVQLQQWGAGLLKPSETLSLTCAVYGGSFSGYYWSWIRQPPGKGLEWIGEINHSGSTNYNPSLKSRVTISVDTSKNQFSLKLSSVTAADTAVYYCARLYKRRPFDYWGQGTL
VL: ETTLTQSPGTLSLSPGERATLSCRASQSVSSSYLAWYQQKRGQAPRLLIYGASRRATGIPDRFSGSGSGSDFTLTISRLEPEDFAVYYCQQYGSSPSTFGQGTK
notes: Tested as IgG1; also called monoclonal antibody 3G12
On to B8, for which the EC50 in test [1] is 11 nM. In test [2], the dissociation constant (Kd) amounted to 12.5 nM, the koff was found to be 0.00169 s⁻¹ and the kon was 135000 M⁻¹ s⁻¹.

B9: anti-GPC-3 IgG1 clone 1F4 (antibody, V domains shown)
VH: QVQLQQWGAGLLKPSETLSLTCAVYGGSFSGYYWSWIRQPPGKGLEWIGEINHSGSTNYNPSLKSRVTISVDTSKNQFSLKLSSVTVADTAVYYCARLYKRRPFDYWGQGTL
VL: ETTLTQSPGTLSLSPGERATLSCRASQSVSSTYLAWYQQKPGQAPRLLIYGASRRATGSPERFSGGGSGTDFTLTISRLEPEDFAVYYCQHYGNSPGTFGQGTK
notes: Tested as IgG1; also called monoclonal antibody 1F4
On to B9, for which the EC50 in test [1] was 10.3 nM. In test [2], the equilibrium dissociation constant (Kd) is 7.2 nM, the off-rate (koff) was found to be 0.00129 s⁻¹ and the kon is 179000 M⁻¹ s⁻¹.

B10: anti-GPC-3 IgG1 clone 3D12 (antibody, V domains shown)
VH: EVQLVQSGAEVKKPGSSVKVSCKASGGTFSSYAISWVRQAPGQGLEWMGGIIPIFGTANYAQKFQGRVTITADKSTSTAYMELSSLRSEDTAVYYCARGIAARPSYYYYMDVWGKGTT
VL: not shown
notes: Tested as IgG1; also called monoclonal antibody 3D12
For B10, the concentration giving a half-maximal response (EC50) in test [1] was 45.5 nM. For the same molecule, in test [2], the dissociation constant Kd was 32.4 nM, the koff amounted to 0.0035 s⁻¹ and the on-rate (kon) was 108000 M⁻¹ s⁻¹.

B11: anti-GPC-3 IgG1 clone 3C12 (antibody, V domains shown)
VH: QVTLKESGPTLVKPTQTLTLTCTFSGFSLSTSGVGVGWIRQPPGKALEWLALIYWNDDKRYSPSLKSRLTITKDTSKNQVVLTMTNMDPVDTATYYCAHSRIAARRVLDYWGQGTL
VL: QSVLTQPPSASVAPGKTARITCGGNNIGSKSVHWYQQKPGQSPVLVIYQDTKRPSGIPERFSGSNSGNTATLTISGAQPMDEADYYCQAWYSTIMVFGGGTK
notes: Tested as IgG1; also called monoclonal antibody 3C12
Take B11: in test [1], the concentration for a half-maximal effect (EC50) is 6.76 nM. Also, in test [2], the Kd was 31.2 nM, the koff was found to be 0.00783 s⁻¹ and the on-rate (kon) was found to be 251000 M⁻¹ s⁻¹.

B12: anti-GPC-3 IgG1 clone 4F9 (antibody, V domains shown)
VH: EVQLVQSGAEVKKPGASVKVSCKASGYTFRNYGISWVRQAPGQGLEWMGWISAYNGNTNYAQKLQGRVTMTTDTSTSTAYMELRSLRSDDTAVYYCARADSSSWYVGTYYYYYGMDVWGQGTT
VL: not shown
notes: Tested as IgG1; also called monoclonal antibody 4F9
Consider B12, for which, in test [1], the EC50 is 5.29 nM. Further, in test [2], the dissociation constant (Kd) was 10.5 nM, the off-rate constant (koff) is 0.00172 s⁻¹ and the kon is 164000 M⁻¹ s⁻¹.

B13: anti-GPC-3 IgG1 clone 1H10 (antibody, V domains shown)
VH: QLQLQESGGGLVQPGGSLRLSCAASGFTFSSYVMSWVRQAPGKGLEWVSTISGSGGSTYYADSVKGRFTISRDNSKNTLYLQMSSLRAEDTAVYYCVMGWYFDLWGRGTL
VL: EIVLTQSPGTLSLSPGERATLSCRASQSVSSSYLAWYQQKPGQAPRLLIYDASNRATGIPARFSGSGSGTDFTLTISSLEPEDFAVYYCQQRSNWPPRATFGQGTR
notes: Tested as IgG1; also called monoclonal antibody 1H10
As to B13, the concentration for a half-maximal effect (EC50) in test [1] is 1.65 nM. Moreover, in test [2], the Kd was determined as 19.7 nM, the koff turned out to be 0.0147 s⁻¹ and the on-rate constant (kon) was 748000 M⁻¹ s⁻¹.

B14: anti-GPC-3 IgG1 clone 2B5 (antibody, V domains shown)
VH: QVQLQESGGGVVQPGRSLRLSCAASGFTFSSYAMHWVRQAPGKGLEWVAVISYDGSNKYYADSVKGRFTISRDNSKNTLYLQMNSLRAEDTAVYYCAKEGTYYYDSSGYWDYYYGMDVWGQGTT
VL: DVVMTQSPLSLPVTPGEPASISCRSSQSLLDSDGYNFLDWYVQKPGQSPQRLIYLGSIRASGVPDRFSGSGSGTDFTLKISRVEADDVGVYYCMQALQTPWTFGQGTK
notes: Tested as IgG1; also called monoclonal antibody 2B5
Consider B14, for which the EC50 in test [1] is 11.9 nM. In addition, in test [2], the dissociation constant (Kd) is 12.4 nM, the koff worked out at 0.0038 s⁻¹ and the kon is 306000 M⁻¹ s⁻¹.

B15: anti-GPC-3 IgG1 clone 4G11 (antibody, V domains shown)
VH: QVQLQESGPGLVKPSGTLSLTCAVSGGSISSSNWWSWVRQPPGKGLEWIGEIYHSGSTNYNPSLKSRVTISVDKSKNQFSLKLSSVTAADTAVYYCARDTSGVAFDYWGQGTL
VL: EIVLTQSPGTLSLSPGERATLSCRASQSVSSSYLAWYQQKPGQAPRLLIYGASSRATGIPDRFSGGGSGTDFTLTISRLEPEDSAVYYCQQYDHSPTFGQGTK
notes: Tested as IgG1; also called monoclonal antibody 4G11
Take B15: in test [1], the EC50 was 7.59 nM. In test [2], the Kd came to 15.5 nM, the koff was determined as 0.00229 s⁻¹ and the on-rate (kon) was determined as 147000 M⁻¹ s⁻¹.

B16: anti-GPC-3 IgG1 clone 1C4 (antibody, V domains shown)
VH: QVQLVQSGGGLVKPGRSLRLSCTASGFTFGDYAMHWVRQAPGKGLEWVAVISYDGSNKYYADSVKGRFTISRDNSKNTLYLQMNSLRAEDTAVYYCARDYGDYYRPYGMDVWGQGTT
VL: DIQMTQSPSTLSASVGDRVTITCRASQSISKWLAWYQHKPGKAPKVLIYKASTLQSGVPSRFSGSGSGTEFTLTISSLQPEDFATYYCQQLNSYPLTFGGGTK
notes: Tested as IgG1; also called monoclonal antibody 1C4
Consider B16, for which the EC50 in test [1] was 1.95 nM. Also, in test [2], the Kd amounted to 14.1 nM, the koff was 0.0134 s⁻¹ and the on-rate (kon) was 949000 M⁻¹ s⁻¹.

B17: anti-GPC-3 IgG1 clone 4H1 (antibody, V domains shown)
VH: EVQLVQSGGGVVQPGRSLRLSCAASGFTFSSYAMHWVRQAPGKGLEWVAVISYDGSNKYYADSVKGRFTISRDNSKNTLYLQMNSLRAEDTAVYYCARAPGLEDYWGQGTL
VL: DIQMTQSPSSLSASVGDRVTITCRASQSISSYLNWYQQKPGTAPKLLIYAASSSLQSGVPSRFSGSGSGTDFALTISSLQPEDFATYYCLQDYNYPLTFGGGTK
notes: Tested as IgG1; also called monoclonal antibody 4H1
Take B17: the EC50 in test [1] was 4.1 nM. Besides, in test [2], the Kd came to 44.2 nM, the koff came to 0.0137 s⁻¹ and the kon came out at 311000 M⁻¹ s⁻¹.

B18: anti-GPC-3 IgG1 clone 3C6 (antibody, V domains shown)
VH: QVQLQESGGGVVQPGRSLRLSCAASGFTFSSYAMHWVRQAPGKGLEWVAVISYDGSNKYYADSVKGRFTISRDNSKNTLYLQMNSLRAEDTAVYYCAYGRYNWNLYFDYWGQGTL
VL: NFMLTQPHSVSESPGKTVTISCTGSSGSIASNYVQWYQQRPGSVPTTVIYEDNQRPSGVPDRFSGSIDSSSNSASLTISGLKTEDEADYYCQSFDSSNYWVFGGGTK
notes: Tested as IgG1; also called monoclonal antibody 3C6
Turning to B18, in test [1], the half-maximal effective concentration (EC50) was 20.9 nM. In test [2], the Kd stood at 8.18 nM, the koff turned out to be 0.000472 s⁻¹ and the on-rate (kon) is 57700 M⁻¹ s⁻¹.

The term EC50 denotes the concentration needed to bring the measured effect to its halfway point. By Kd is commonly meant the free concentration of one partner at which half of the binding sites on the other are occupied at equilibrium, for simple one-to-one binding. A word on the koff: it is the first-order rate constant of dissociation. By kon is commonly meant a measure of how fast the partners come together.
